Source: US20020045590A1 (Johns Hopkins, published 2002)

Key:
[1] = target: T1, neuronal nitric oxide synthase (nNOS) (rat, UniProt P29476 1-1429, limits assumed); assay: GST fusion protein binding assay with rat hippocampus membrane proteins, immunoblot
T1 construct: Endogenous rat protein
Experimental: We utilized the yeast two-hybrid system to investigate the effects of halothane on protein interactions within the NMDA receptor signaling complex. The PDZ domain of nNOS or the C-terminus of NMDA receptor subunit 2B (NR2B) was fused in frame with the GAL4 DNA-binding domain in a yeast vector, pGBT9. […] Both yeast vectors were co-transformed into the Y190 yeast strain, which was then grown in the absence or presence of halothane at clinically relevant concentrations. Protein-protein interactions were confirmed by both yeast growth on -Leu/-Trp/-His (-LTH) medium and lacz expression. To confirm the yeast two-hybrid results, the GST fusion protein binding assay was performed. […] After extensive washing, the bound proteins were eluted by boiling in 1 X SDS-PAGE sample buffer and detected by immunoblotting.

[2] = target: T2, postsynaptic density-95 (PSD-95)/synapse-associated protein-90 (SAP90) (rat, UniProt P31016 1-724); assay: co-immunoprecipitation from rat spinal cord PSD fraction, immunoblot
T2 construct: Endogenous protein from rat spinal cord PSD fraction, pulled down by co-immunoprecipitation; also called PSD-95/SAP90
T2 sequence (P31016 whole entry): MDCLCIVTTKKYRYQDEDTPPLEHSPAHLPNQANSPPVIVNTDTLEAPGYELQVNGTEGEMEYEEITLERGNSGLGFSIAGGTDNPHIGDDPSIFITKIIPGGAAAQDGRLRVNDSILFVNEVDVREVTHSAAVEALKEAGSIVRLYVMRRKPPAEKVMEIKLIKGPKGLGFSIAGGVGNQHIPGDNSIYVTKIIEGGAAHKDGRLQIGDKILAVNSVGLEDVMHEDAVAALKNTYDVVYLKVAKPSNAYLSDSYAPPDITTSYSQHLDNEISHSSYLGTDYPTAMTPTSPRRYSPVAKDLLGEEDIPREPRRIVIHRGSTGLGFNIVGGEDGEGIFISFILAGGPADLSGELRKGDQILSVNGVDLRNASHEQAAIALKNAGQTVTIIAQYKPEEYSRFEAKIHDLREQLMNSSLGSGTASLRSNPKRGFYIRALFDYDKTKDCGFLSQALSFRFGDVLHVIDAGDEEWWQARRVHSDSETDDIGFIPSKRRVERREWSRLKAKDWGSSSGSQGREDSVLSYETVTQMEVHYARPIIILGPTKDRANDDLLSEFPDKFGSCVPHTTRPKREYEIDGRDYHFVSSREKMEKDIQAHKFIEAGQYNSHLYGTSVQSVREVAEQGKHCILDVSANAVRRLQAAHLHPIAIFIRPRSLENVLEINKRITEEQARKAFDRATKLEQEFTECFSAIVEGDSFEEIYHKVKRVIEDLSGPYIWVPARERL

T1 sequence (P29476 whole entry, the tested form may be a part): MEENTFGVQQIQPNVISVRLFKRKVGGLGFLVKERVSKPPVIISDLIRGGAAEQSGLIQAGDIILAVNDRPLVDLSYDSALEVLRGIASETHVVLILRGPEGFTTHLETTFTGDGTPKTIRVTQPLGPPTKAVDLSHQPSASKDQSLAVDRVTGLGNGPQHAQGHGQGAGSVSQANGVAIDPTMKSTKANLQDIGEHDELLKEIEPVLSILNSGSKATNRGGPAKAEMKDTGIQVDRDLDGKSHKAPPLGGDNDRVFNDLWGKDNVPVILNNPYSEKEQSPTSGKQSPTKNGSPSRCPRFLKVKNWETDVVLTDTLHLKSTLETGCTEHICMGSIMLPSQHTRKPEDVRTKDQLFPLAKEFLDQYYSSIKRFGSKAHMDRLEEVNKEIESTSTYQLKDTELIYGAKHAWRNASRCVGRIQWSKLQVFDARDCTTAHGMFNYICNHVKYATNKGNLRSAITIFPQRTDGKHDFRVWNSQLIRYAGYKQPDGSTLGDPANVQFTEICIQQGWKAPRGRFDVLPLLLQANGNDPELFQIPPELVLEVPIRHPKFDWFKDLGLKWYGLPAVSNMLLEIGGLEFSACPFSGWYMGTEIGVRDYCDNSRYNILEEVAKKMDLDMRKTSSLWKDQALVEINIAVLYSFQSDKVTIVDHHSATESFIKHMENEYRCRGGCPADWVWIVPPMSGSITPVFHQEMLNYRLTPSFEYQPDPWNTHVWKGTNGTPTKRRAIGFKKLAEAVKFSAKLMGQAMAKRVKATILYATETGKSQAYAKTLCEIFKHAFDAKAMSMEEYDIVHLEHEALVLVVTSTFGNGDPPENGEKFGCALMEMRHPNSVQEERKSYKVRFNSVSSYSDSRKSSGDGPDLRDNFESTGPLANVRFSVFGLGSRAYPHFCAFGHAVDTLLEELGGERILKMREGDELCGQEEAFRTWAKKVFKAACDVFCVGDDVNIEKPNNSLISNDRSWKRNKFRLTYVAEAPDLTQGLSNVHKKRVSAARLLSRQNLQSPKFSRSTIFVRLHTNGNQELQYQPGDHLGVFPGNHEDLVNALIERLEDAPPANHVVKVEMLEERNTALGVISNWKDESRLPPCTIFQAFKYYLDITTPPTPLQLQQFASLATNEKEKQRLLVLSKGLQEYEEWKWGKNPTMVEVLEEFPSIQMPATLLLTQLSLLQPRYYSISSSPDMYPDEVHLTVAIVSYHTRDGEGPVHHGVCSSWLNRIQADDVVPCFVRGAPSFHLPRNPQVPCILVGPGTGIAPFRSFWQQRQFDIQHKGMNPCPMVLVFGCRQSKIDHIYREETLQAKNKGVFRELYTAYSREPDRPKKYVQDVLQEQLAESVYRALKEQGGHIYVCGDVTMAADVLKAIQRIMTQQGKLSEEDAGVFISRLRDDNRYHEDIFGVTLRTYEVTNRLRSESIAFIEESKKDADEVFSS

B1: GST-fusion protein consisting of the second PDZ domain of PSD-95 (other, UniProt P31016 160-246, looked up)
chain: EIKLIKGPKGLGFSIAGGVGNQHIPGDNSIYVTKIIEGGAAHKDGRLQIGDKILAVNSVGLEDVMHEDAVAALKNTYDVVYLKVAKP
notes: domain: second PDZ domain; Expressed in bacterial BL21 cells, purified on glutathione-coupled agarose; also called GST-PSD-95; GST-fusion PSD-95; not shown: glutathione S-transferase (GST) tag
Does B1 bind [1]?
Result: binds

B2: endothelial NOS (eNOS) (enzyme, rat, UniProt Q62600 2-1202, looked up)
chain: GNLKSVGQEPGPPCGLGLGLGLGLCGKQGPASPAPEPSQAPVPPSPTRPAPDHSPPLTRPPDGPKFPRVKNWEVGSITYDTLSAQAQQDGPCTPRRCLGSLVFPRKLQSRPTQGPSPTEQLLGQARDFINQYYNSIKRSGSQAHEQRLQEVEAEVVATGTYQLRESELVFGAKQAWRNAPRCVGRIQWGKLQVFDARDCRTAQEMFTYICNHIKYATNRGNLRSAITVFPQRYAGRGDFRIWNSQLVRYAGYRQQDGSVRGDPANVEITELCIQHGWTPGNGRFDVLPLLLQAPDEPPELFTLPPELVLEVPLEHPTLEWFAALGLRWYALPAVSNMLLEIGGLEFPAAPFSGWYMSSEIGMRDLCDPHRYNILEDVAVCMDLDTRTTSSLWKDKAAVEINVAVLYSYQLAKVTIVDHHAATASFMKHLENEQKARGGCPADWAWIVPPISGSLTPVFHQEMVNYFLSPAFRYQPDPWKGSAAKGTGITRKKTFKEVANAVKISASLMGTVMAKRVKATILYGSETGRAQSYAQQLGRLFRKAFDPRVLCMDEYDVVSLEHEALVLVVTSTFGNGDPPENGESFAAALMEMSGPYNSSPRPEQHKSYKIRFNSVSCSDPLVSSWRRKRKESSNTDSAGALGTLRFCVFGLGSRAYPHFCAFARAVDTRLEELGGERLLQLGQGDELCGQEEAFRGWAQAAFQAACETFCVGEDAKAAARDIFSPKRSWKRQRYRLSTQAESLQLLPRLTHVHRRKMFQATILSVENLQSSKSTRATILVRLDTGSQEGLQYQPGDHIGVCPPNRPGLVEALLSRVEDPPPSTEPVAVEQLEKGSPGGPPPGWVRDPRLPPCTLRQALTYFLDITSPPSPRLLRLLSTLAEESSEQQELEALSQDPRRYEEWKWFRCPTLLEVLEQFPSVALPAPLILTQLPLLQPRYYSVSSAPSAHPGEIHLTVAVLAYRTQDGLGPLHYGVCSTWMSQLKAGDPVPCFIRGAPSFRLPPDPNLPCILVGPGTGIAPFRGFWQDRLHDIEIKGLQPAPMTLVFGCRCSQLDHLYRDEVLDAQQRGVFGQVLTAFSRDPGSPKTYVQDLLRTELAAEVHRVLCLEQGHMFVCGDVTMATSVLQTVQRILATEGSMELDEAGDVIGVLRDQQRYHEDIFGLTLRTQEVTSRIRTQSFSLQERQLRGAVPWSFDPPTQETPGS
notes: Endogenous rat protein
Does B2 bind [2]?
Result: no binding

B3: GST-fusion protein consisting of the second PDZ domain of PSD-93 (other, UniProt Q63622 193-279, looked up)
chain: EIKLFKGPKGLGFSIAGGVGNQHIPGDNSIYVTKIIDGGAAQKDGRLQVGDRLLMVNNYSLEEVTHEEAVAILKNTSDVVYLKVGKP
notes: domain: second PDZ domain; Expressed in bacterial BL21 cells, purified on glutathione-coupled agarose; also called GST-PSD-93; GST-fusion PSD-93; not shown: glutathione S-transferase (GST) tag
Does B3 bind [1]?
Result: binds
